Experimental findings from PMC7228847 (Cell host & microbe, 2020) are described below.

As a reminder, the Kd is the equilibrium constant for the complex coming apart.

B2: Recombinant human Fc-tagged SEMA6A extracellular domain (Fc fusion)
chain: GFPEDSEPISISHGNYTKQYPVFVGHKPGRNTTQRHRLDIQMIMIMNGTLYIAARDHIYTVDIDTSHTEEIYCSKKLTWKSRQADVDTCRMKGKHKDECHNFIKVLLKKNDDALFVCGTNAFNPSCRNYKMDTLEPFGDEFSGMARCPYDAKHANVALFADGKLYSATVTDFLAIDAVIYRSLGESPTLRTVKHDSKWLKEPYFVQAVDYGDYIYFFFREIAVEYNTMGKVVFPRVAQVCKNDMGGSQRVLEKQWTSFLKARLNCSVPGDSHFYFNILQAVTDVIRINGRDVVLATFSTPYNSIPGSAVCAYDMLDIASVFTGRFKEQKSPDSTWTPVPDERVPKPRPGCCAGSSSLERYATSNEFPDDTLNFIKTHPLMDEAVPSIFNRPWFLRTMVRYRLTKIAVDTAAGPYQNHTVVFLGSEKGIILKFLARIGNSGFLNDSLFLEEMSVYNSEKCSYDGVEDKRIMGMQLDRASSSLYVAFSTCVIKVPLGRCERHGKCKKTCIASRDPYCGWIKEGGACSHLSPNSRLTFEQDIERGNTDGLGDCHNSFVALNGHSSSLLPSTTTSDSTAQEGYESRGGMLDWKHLLDSPDSTDPLGAVSSHNHQDKKGVIRESYLKGHDQLVPVT
B3: Recombinant human Fc-tagged SEMA6B extracellular domain (Fc fusion)
chain: LFPEEPPPLSVAPRDYLNHYPVFVGSGPGRLTPAEGADDLNIQRVLRVNRTLFIGDRDNLYRVELEPPTSTELRYQRKLTWRSNPSDINVCRMKGKQEGECRNFVKVLLLRDESTLFVCGSNAFNPVCANYSIDTLQPVGDNISGMARCPYDPKHANVALFSDGMLFTATVTDFLAIDAVIYRSLGDRPTLRTVKHDSKWFKEPYFVHAVEWGSHVYFFFREIAMEFNYLEKVVVSRVARVCKNDVGGSPRVLEKQWTSFLKARLNCSVPGDSHFYFNVLQAVTGVVSLGGRPVVLAVFSTPSNSIPGSAVCAFDLTQVAAVFEGRFREQKSPESIWTPVPEDQVPRPRPGCCAAPGMQYNASSALPDDILNFVKTHPLMDEAVPSLGHAPWILRTLMRHQLTRVAVDVGAGPWGNQTVVFLGSEAGTVLKFLVRPNASTSGTSGLSVFLEEFETYRPDRCGRPGGGETGQRLLSLELDAASGGLLAAFPRCVVRVPVARCQQYSGCMKNCIGSQDPYCGWAPDGSCIFLSPGTRAAFEQDVSGASTSGLGDCTGLLRASLSEDRAGLVSVNLLVTSS

Assay in all cases: BLI
For orientation: In BLI a coated tip is dipped into the sample, and binding shifts an interference pattern.

The target in test [1] is B3.
For test [2], the target named is B2.
The target of test [3] is TcsL (Paeniclostridium sordellii lethal toxin), recombinant His-tagged, full length (Paeniclostridium sordellii strain 6018, UniProt Q46342).

B1: TcsL_(1285-1804) (domain or fragment)
chain: TNVRINLDGNTRSFIVPVITTEQIRKNLSYSFYGSGGSYSLSLSPYNMNIDLNLVENDTWVIDVDNVVKNITIESDEIQKGELIENILSKLNIEDNKIILNNHTINFYGDINESNRFISLTFSILEDINIIIEIDLVSKSYKILLSGNCMKLIENSSDIQQKIDHIGFNGEHQKYIPYSYIDNETKYNGFIDYSKKEGLFTAEFSNESIIRNIYMPDSNNLFIYSSKDLKDIRIINKGDVKLLIGNYFKDDMKVSLSFTIEDTNTIKLNGVYLDENGVAQILKFMNNAKSALNTSNSLMNFLESINIKNIFYNNLDPNIEFILDTNFIISGSNSIGQFELICDKDKNIQPYFINFKIKETSYTLYVGNRQNLIVEPSYHLDDSGNISSTVINFSQKYLYGIDRYVNKVIIAPNLYTDEINITPVYKPNYICPEVIILDANYINEKINVNINDLSIRYVWDNDGSDLILIANSEEDNQPQVKIRFVNVFKSDTAADKLSFNFSDKQDVSVSKIISTFSLAA
For B1, the binding result in test [1] and in test [2] was “binds” throughout. With B2, the Kd in test [3] is ~40 nM. As for B3, the Kd in test [3] is ~60 nM.
